What was measured:
[1] = tested on: CC(C)=CCC/C(C)=C/CC/C(C)=C/CC/C(C)=C/C=C\C=C(/C)CC/C=C(\C)CC/C=C(\C)CCC=C(C)C; test: purified protein; conditions: 150 µM FAD, phytoene 0.8-9.2 µM (apparent bulk concentration) in phosphatidyl-choline liposomes, aerobic, phosphate pH 8.0, 100 mM NaCl, 37 °C, 12 min, not saturated
[2] = tested on: Cc1cc2nc3c(=O)[nH]c(=O)nc-3n(C[C@H](O)[C@H](O)[C@H](O)COP(=O)(O)OP(=O)(O)OC[C@H]3O[C@@H](n4cnc5c(N)ncnc54)[C@H](O)[C@@H]3O)c2cc1C; test: purified protein; conditions: phytoene 7 µM (7.5 µM in Figure 4 legend) in phosphatidyl-choline liposomes, aerobic, phosphate pH 8.0, 100 mM NaCl, 37 °C, 12 min, varied: cofactor

Q: How did the Km [1] turn out when CRTI (CRTI-His6) (Pantoea ananatis) was run?
A: 16.7 ± 1.9 µM

Q: What about the Km [2] of the same substance?
A: 50.5 ± 2.9 µM
